Article PMC10400533, “Exploring the G-quadruplex binding and unwinding activity of the bacterial FeS helicase DinG”

What was measured:
DinG helicase [1] = biological target: T1, DinG helicase (Escherichia coli, UniProt P27296 1-716); assay: SPR; SPR single-cycle kinetics, 25 C, DinG immobilized, DNA 0.062-1 uM; DNA prepared in 10 mM potassium phosphate, 50 mM KCl, pH 7.5; SPR running buffer not in material; details: protein: recombinant, tags: His-tag
T1 sequence: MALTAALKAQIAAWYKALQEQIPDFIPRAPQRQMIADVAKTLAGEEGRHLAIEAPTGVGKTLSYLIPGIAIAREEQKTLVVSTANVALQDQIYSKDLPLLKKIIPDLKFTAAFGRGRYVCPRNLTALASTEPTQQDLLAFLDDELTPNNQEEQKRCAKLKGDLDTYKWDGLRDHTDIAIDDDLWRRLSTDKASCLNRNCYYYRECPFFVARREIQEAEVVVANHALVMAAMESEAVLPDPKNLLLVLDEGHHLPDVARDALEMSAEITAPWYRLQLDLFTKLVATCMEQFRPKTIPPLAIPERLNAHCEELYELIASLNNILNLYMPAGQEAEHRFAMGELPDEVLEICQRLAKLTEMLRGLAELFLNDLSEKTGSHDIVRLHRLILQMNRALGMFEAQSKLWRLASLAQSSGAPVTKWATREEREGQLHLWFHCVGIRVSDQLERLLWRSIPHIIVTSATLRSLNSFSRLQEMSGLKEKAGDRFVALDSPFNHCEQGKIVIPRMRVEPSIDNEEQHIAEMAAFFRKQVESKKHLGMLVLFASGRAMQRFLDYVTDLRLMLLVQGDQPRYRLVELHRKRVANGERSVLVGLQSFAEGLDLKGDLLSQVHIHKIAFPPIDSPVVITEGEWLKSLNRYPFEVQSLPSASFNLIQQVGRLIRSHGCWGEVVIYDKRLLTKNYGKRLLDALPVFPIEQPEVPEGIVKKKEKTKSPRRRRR

DinG helicase [2] = biological target: T1, DinG helicase; assay: SPR; Netropsin; SPR single-cycle kinetics, 25 C, DinG immobilized, DNA 0.062-1 uM; DNA prepared in 10 mM potassium phosphate, 50 mM KCl, pH 7.5; SPR running buffer not in material; details: protein: recombinant; tags: His-tag; parallel unimolecular G4

B1: Zic1 (structured_DNA)
DNA: GGTGGGGGGGCGGGGGAGGCCGGG
Kd (DinG helicase [1]; parallel G4): 0.0228 µM

B2: EC-7 (structured_DNA)
DNA: GGGGGAGGAGGACGGGGG
Kd (DinG helicase [1]; G4): 0.0569 µM

B3: c-MYC (structured_DNA)
DNA: AGGGTGGGTAGGGTGGGT
Kd (DinG helicase [1]; parallel unimolecular G4): 0.0306 µM

B4: Tel23 (structured_DNA)
DNA: TAGGGTTAGGGTTAGGGTTAGGG
Kd (DinG helicase [1]; hybrid [3+1] unimolecular G4): 0.0094 µM

B5: BCL2 (structured_DNA)
DNA: GGGCGCGGGAGGAATTGGGCGGG
Kd (DinG helicase [1]; hybrid [3+1] unimolecular G4): 0.021 µM

B6: EC-9 (structured_DNA)
DNA: GGGGCGGGGTGGGTTGG
Kd (DinG helicase [1]; G4): 0.0349 µM

B7: c-KIT1 (structured_DNA)
DNA: AGGGAGGGCGCTGGGAGGAGGG
Kd (DinG helicase [2]): 0.0315 µM
Kd (DinG helicase [1]; parallel unimolecular G4): 0.0289 µM

B8: T30695 (structured_DNA)
DNA: GGGTGGGTGGGTGGGT
Kd (DinG helicase [1]; dimeric parallel G4 of 2 strands): 0.163 µM

B9: DNA-fork (D1/D2) (dsDNA)
DNA 1: CTACTACCCCCACCCTCACAACCTTTTTTTTTTTTTT
DNA 2: TTTTTTTTTTTTTTGGTTGTGAGGGTGGGGGTAGTAG
Kd (DinG helicase [1]; fork 1:2, 23 bp duplex, 3' T14 tail on strand 1 and 5' T14 tail on strand 2): 0.0559 µM

B10: KRAS (structured_DNA)
DNA: AGGGCGGTGTGGGAATAGGGAA
Kd (DinG helicase [1]; parallel unimolecular G4): 0.0464 µM

B11: G-scramble (ssDNA)
DNA: GTGTGTGTGTGTGTGTGTGTGTGTGTGTGT
Kd (DinG helicase [1]; no G4 or other secondary structure): 0.126 µM

B12: EC-6 (structured_DNA)
DNA: GGTGGGGAGGGGTAAGGGG
Kd (DinG helicase [1]; G4): 0.0367 µM
